# US20170355757A1
# Target: human C5aR1 (human) (UniProt P21730)
# Experiment: cell-based or functional assay
# Sequence of human C5aR1 (human) (P21730 whole entry): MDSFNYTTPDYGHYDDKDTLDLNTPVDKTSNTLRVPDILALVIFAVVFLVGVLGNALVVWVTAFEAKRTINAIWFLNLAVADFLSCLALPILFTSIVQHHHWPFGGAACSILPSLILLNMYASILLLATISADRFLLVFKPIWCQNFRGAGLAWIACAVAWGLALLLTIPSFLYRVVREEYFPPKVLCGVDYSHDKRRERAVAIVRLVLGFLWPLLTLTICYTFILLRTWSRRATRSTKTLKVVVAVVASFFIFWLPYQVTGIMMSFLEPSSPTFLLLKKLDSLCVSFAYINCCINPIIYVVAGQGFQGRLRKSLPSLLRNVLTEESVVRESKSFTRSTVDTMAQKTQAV
substance,measurement,value
hC5a (from UniProt P01031 678-751) (ligand),"EC50[M] hC5a, luciferase reporter in HEK293/Gα16/hC5aR1/NFAT-luc cells",3.9e-10 M
